*: point of attachment. carboxyfluorescein = carboxyfluorescein on the N-terminus (no linker); Biotin = O=C1N[C@H]2[C@H](CS[C@H]2CCCCC(=O)*)N1; TTDS = Trioxatridecan-succinamic acid linker

In assay [1] the target is T1, His6-AviTag-MBP-TEV-POLE2 (human, UniProt P56282 1-527, biotin on the AviTag (BirA co-expressed, biotin in the medium)).
T1 construct: POLE2, residues 1-527; a TEV site lies between MBP and POLE2; also called His6-avi-MBP-tagged POLE2; avi-His6-MBP-POLE2; source: E. coli BL21(DE3), co-expressed with BirA, purified (HisTrap, MBPtrap, Q HP); not shown: His6, N-terminal, kept; AviTag, N-terminal, kept; MBP, N-terminal, kept
T1 sequence (P56282 whole entry, the tested form may be a part): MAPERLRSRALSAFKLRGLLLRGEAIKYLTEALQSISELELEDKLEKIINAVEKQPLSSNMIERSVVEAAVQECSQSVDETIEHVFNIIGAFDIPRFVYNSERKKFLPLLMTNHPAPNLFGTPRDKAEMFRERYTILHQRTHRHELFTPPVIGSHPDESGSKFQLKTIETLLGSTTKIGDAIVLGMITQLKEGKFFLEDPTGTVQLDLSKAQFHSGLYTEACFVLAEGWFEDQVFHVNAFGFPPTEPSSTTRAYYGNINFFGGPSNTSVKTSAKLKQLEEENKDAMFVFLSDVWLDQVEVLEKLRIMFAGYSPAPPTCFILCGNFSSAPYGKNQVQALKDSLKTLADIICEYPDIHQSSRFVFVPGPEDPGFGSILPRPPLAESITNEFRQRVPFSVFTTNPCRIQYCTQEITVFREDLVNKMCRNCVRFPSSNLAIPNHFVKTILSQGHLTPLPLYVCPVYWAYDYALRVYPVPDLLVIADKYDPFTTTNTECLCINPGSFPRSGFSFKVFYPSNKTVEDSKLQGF
The assay can be described thus: native holdup (nHU) titration with dot blot; purified His6-avi-MBP-tagged POLE2 as bait on resin; extracts of HEK293T cells transfected with HA-tagged full length proteins; 4 °C, 2 h; anti-HA dot blot; apparent. The note with it: one partner purified.

Assay [2] concerns the target T1, His6-AviTag-MBP-TEV-POLE2. The assay can be described thus: fluorescence polarisation; competitive; dilution series of the non-fluorescent DONSON peptide added to 50 nM fluoDONSON and 3.85 μM POLE2 protein; same buffer as the direct experiment. The settings on record: both partners purified. On the technique in general: Fluorescence polarisation rises when a labelled molecule tumbles more slowly, as on binding a larger partner.

A further assay addresses T2, HA-POLE2 (human, UniProt P56282 1-527).
T2 construct: POLE2, residues 1-527; also called HA-POLE2 wild type; source: HEK293T, transfected, in cell extract; not shown: HA, N-terminal, kept
The experiment in a line: native holdup (nHU) titration with dot blot; DONSON_71-88-saturated streptavidin resin mixed with control resin at various proportions; extracts of HEK293T cells expressing HA-tagged POLE2 variants; 4 °C, 2 h; depletion quantified with an antibody against the HA tag; apparent. The note with it: one partner purified.

Assay [3] addresses T1, His6-AviTag-MBP-TEV-POLE2. The experiment in a line: fluorescence polarisation; direct; dilution series of MBP-POLE2 added to 50 nM fluoDONSON peptide; 20 mM Hepes pH 7.5, 150 mM NaCl, 0.5 mM TCEP, 0.01% Tween 20. The settings on record: both partners purified.

T2 sequence (P56282 whole entry, the tested form may be a part): as above

B1: HA-TTF2, full length, N-terminal NPF motif mutated to KAF (natural protein, human, UniProt Q9UNY4 1-1162, looked up)
chain: MEEVRCPEHGTFCFLKTGVRDGPNKGKSFYVCRADTCSFVRATDIPVSHCLLHEDFVVELQGLLLPQDKKEYRLFFRCIRSKAEGKRWCGSIPWQDPDSKEHSVSNKSQHASETFHHSSNWLRKAFKVLDKNQEPALWKQLIKGEGEEKKADKKQREKGDQLFDQKKEQKPEMMEKDLSSGLVPKKKQSVVQEKKQEEGAEIQCEAETGGTHKRDFSEIKSQQCQGNELTRPSASSQEKSSGKSQDVQRESEPLREKVTQLLPQNVHSHNSISKPQKGGPLNKEYTNWEAKETKAKDGPSIQATQKSLPQGHFQERPETHSVPAPGGPAAQAAPAAPGLSLGEGREAATSSDDEEEDDVVFVSSKPGSPLLFDSTLDLETKENLQFPDRSVQRKVSPASGVSKKVEPSDPVARRVYLTTQLKQKKSTLASVNIQALPDKGQKLIKQIQELEEVLSGLTLSPEQGTNEKSNSQVPQQSHFTKTTTGPPHLVPPQPLPRRGTQPVGSLELKSACQVTAGGSSQCYRGHTNQDHVHAVWKITSEAIGQLHRSLESCPGETVVAEDPAGLKVPLLLHQKQALAWLLWRESQKPQGGILADDMGLGKTLTMIALILTQKNQEKKEEKEKSTALTWLSKDDSCDFTSHGTLIICPASLIHHWKNEVEKRVNSNKLRVYLYHGPNRDSRARVLSTYDIVITTYSLVAKEIPTNKQEAEIPGANLNVEGTSTPLLRIAWARIILDEAHNVKNPRVQTSIAVCKLQACARWAVTGTPIQNNLLDMYSLLKFLRCSPFDEFNLWRSQVDNGSKKGGERLSILTKSLLLRRTKDQLDSTGRPLVILPQRKFQLHHLKLSEDEETVYNVFFARSRSALQSYLKRHESRGNQSGRSPNNPFSRVALEFGSEEPRHSEAADSPRSSTVHILSQLLRLRQCCCHLSLLKSALDPMELKGEGLVLSLEEQLSALTLSELRDSEPSSTVSLNGTFFKMELFEGMRESTKISSLLAELEAIQRNSASQKSVIVSQWTNMLKVVALHLKKHGLTYATIDGSVNPKQRMDLVEAFNHSRGPQVMLISLLAGGVGLNLTGGNHLFLLDMHWNPSLEDQACDRIYRVGQQKDVVIHRFVCEGTVEEKILQLQEKKKDLAKQVLSGSGESVTKLTLADLRVLFGI
notes: TTF2, residues 1-1162; only the N-terminal NPF motif mutated; also called TTF2 mutant; source: HEK293T, transfected, in cell extract; not shown: HA, N-terminal, kept
As to B1, the “fold weaker affinity than the wild type” value in assay [1] is ~4 fold.

B2: NPF motif peptide of DONSON (residues 71-88) (peptide)
peptide: {Biotin-TTDS}-GPAAARRNPFARLDNRPR-NH2
notes: Protein downstream neighbor of Son (DONSON), residues 71-88; also called DONSON_71-88; DONSON NPF motif; source: synthetic peptide (ABI 443 A synthesizer, Fmoc), HPLC purified
Consider B2, for which the Kd was 13 µM in assay [2] and 0.28 µM with HA-POLE2.

B3: HA-ERCC6L, full length, NPF motif mutated to KAF (natural protein, human, UniProt Q2NKX8 1-1250, looked up)
chain: MEASRRFPEAEALSPEQAAHYLRYVKEAKEATKNGDLEEAFKLFNLAKDIFPNEKVLSRIQKIQEALEELAEQGDDEFTDVCNSGLLLYRELHNQLFEHQKEGIAFLYSLYRDGRKGGILADDMGLGKTVQIIAFLSGMFDASLVNHVLLIMPTNLINTWVKEFIKWTPGMRVKTFHGPSKDERTRNLNRIQQRNGVIITTYQMLINNWQQLSSFRGQEFVWDYVILDEAHKIKTSSTKSAICARAIPASNRLLLTGTPIQNNLQELWSLFDFACQGSLLGTLKTFKMEYENPITRAREKDATPGEKALGFKISENLMAIIKPYFLRRTKEDVQKKKSSNPEARLNEKNPDVDAICEMPSLSRKNDLIIWIRLVPLQEEIYRKFVSLDHIKELLMETRSPLAELGVLKKLCDHPRLLSARACCLLNLGTFSAQDGNEGEDSPDVDHIDQVTDDTLMEESGKMIFLMDLLKRLRDEGHQTLVFSQSRQILNIIERLLKNRHFKTLRIDGTVTHLLEREKRINLFQQNKDYSVFLLTTQVGGVGLTLTAATRVVIFDPSWNPATDAQAVDRVYRIGQKENVVVYRLITCGTVEEKIYRRQVFKDSLIRQTTGEKKNPFRYFSKQELRELFTIEDLQNSVTQLQLQSLHAAQRKSDIKLDEHIAYLQSLGIAGISDHDLMYTCDLSVKEELDVVEESHYIQQRVQKAQFLVEFESQNKEFLMEQQRTRNEGAWLREPVFPSSTKKKCPKLNKPQPQPSPLLSTHHTQEEDISSKMASVVIDDLPKEGEKQDLSSIKVNVTTLQDGKGTGSADSIATLPKGFGSVEELCTNSSLGMEKSFATKNEAVQKETLQEGPKQEALQEDPLESFNYVLSKSTKADIGPNLDQLKDDEILRHCNPWPIISITNESQNAESNVSIIEIADDLSASHSALQDAQASEAKLEEEPSASSPQYACDFNLFLEDSADNRQNFSSQSLEHVEKENSLCGSAPNSRAGFVHSKTCLSWEFSEKDDEPEEVVVKAKIRSKARRIVSDGEDEDDSFKDTSSIKAFNTSLFQFSSVKQFDASTPKNDISPPGRFFSSQIPSSVNKSMNSRRSLASRRSLINMVLDHVEDMEERLDDSSEAKGPEDYPEEGVEESSGEASKYTEEDPSGETLSSENKSSWLMTSKPSALAQETSLGAPEPLSGEQLVGSPQDKAAEATNDYETLVKRGKELKECGKIQEALNCLVKALDIKSADPEVMLLTLSLYKQLNNN
notes: ERCC6L, residues 1-1250; also called mutated version of ERCC6L; source: HEK293T, transfected, in cell extract; not shown: HA, N-terminal, kept
For B3, the “fold weaker affinity than the wild type” value in assay [1] stood at 10 fold.

B4: fluoDONSON peptide (residues 71-88) (peptide)
peptide: carboxyfluorescein-GPAAARRNPFARLDNRPR-NH2
notes: DONSON, residues 71-88; also called fluorescein-labeled DONSON_71-88 peptide; fluorescent NPF motif peptide; source: synthetic peptide, HPLC purified
Molecule B4 came in with a Kd in assay [3] of 16 µM.

For the origin of these results see publication PMC12808100 (Nature Communications, 2025).
